Measured values from patent publication US20250376533A1 (FUTUREGEN BIOPHARMACEUTICAL BEIJING, published 2025).

Experiments:
[1] = target: T1, human PD-L1 antigen (ACROBiosystems) (human, UniProt Q9NZQ7 19-238); assay: BLI (Gator), antibody captured on PA probe, human PD-L1 in solution
T1 construct: Bought antigen coated on ELISA plates
Protocol: The interaction between monoclonal antibodies and antigens was detected using Gator, a label-free biomolecular interaction analyzer based on the principle of biolayer interferometry (BLI). The specific method is as follows: monoclonal antibody was diluted to 50 nM and added to a probe plate using a PA probe, allowing the monoclonal antibody to be captured by the PA probe. Human PD-L1, an antigen serially diluted starting from 200 nM, was then added for interaction with the […] captured by the PA probe. The interaction was analyzed by detecting the signal change of the reflected interference spectrum on the surface of the probe, and the binding kinetic constants of the antibody were finally calculated.

[2] = target: T1, human PD-L1 antigen (ACROBiosystems); assay: ELISA, coated antigen
Protocol: (§1) The binding ability of monoclonal antibody to human PD-L1, as well as the species specificity, was detected using an enzyme-linked immunosorbent assay (ELISA). The specific method is as follows: human PD-L1, cynomolgus PD-L1, rat PD-L1, and mouse PD-L1 antigens (all purchased from ACROBiosystems) were coated with 1 μg/mL carbonate buffer (pH=9.6) in an ELISA plate at 100 μL per well, followed by incubation at 4° C. overnight. The wells were washed 5 times with PBST. 300 μL/well of PBST containing 1% BSA was added to block the wells, and the plate was incubated at room temperature for 1 hour. The wells were washed 5 times with PBST. […] The wells were washed 5 times with PBST. […] The wells were washed 5 times with PBST. Colorimetric substrate TMB was added at 100 μL per well and allowed to develop color at room temperature for 10 minutes, followed by the addition of 1 M sulfuric acid to terminate the reaction. The OD_{450 nm} was read on a microplate reader to analyze the results, and the EC₅₀ was calculated using a 4-parameter fit binding curve.
(§2) These monoclonal antibodies are not able to bind to rat PD-L1 or mouse PD-L1.

[3] = target: T2, mouse PD-L1 antigen (ACROBiosystems) (mouse, UniProt Q9EP73 19-239); assay: ELISA, coated antigen
T2 construct: Bought antigen coated on ELISA plates; construct not described
T2 sequence (Q9EP73 19-239 limits assumed): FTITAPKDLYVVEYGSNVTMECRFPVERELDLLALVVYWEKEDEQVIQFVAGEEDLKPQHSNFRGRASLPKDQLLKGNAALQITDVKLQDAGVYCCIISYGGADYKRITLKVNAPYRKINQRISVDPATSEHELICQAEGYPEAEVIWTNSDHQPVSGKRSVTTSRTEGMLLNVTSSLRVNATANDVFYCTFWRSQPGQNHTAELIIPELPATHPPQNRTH
Protocol: as §1, §2

[4] = target: T3, rat PD-L1 antigen (ACROBiosystems) (rat, UniProt D4AE25 19-239); assay: ELISA, coated antigen
T3 construct: Bought antigen coated on ELISA plates; construct not described
T3 sequence (D4AE25 entry or part of it limits assumed): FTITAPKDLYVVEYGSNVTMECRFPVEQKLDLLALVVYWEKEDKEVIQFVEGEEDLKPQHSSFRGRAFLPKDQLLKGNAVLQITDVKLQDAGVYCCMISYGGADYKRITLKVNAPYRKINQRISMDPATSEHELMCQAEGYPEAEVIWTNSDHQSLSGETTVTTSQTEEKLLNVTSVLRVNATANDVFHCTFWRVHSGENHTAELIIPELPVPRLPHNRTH
Protocol: as §1, §2

[5] = target: T4, cynomolgus PD-L1 antigen (ACROBiosystems) (cynomolgus, UniProt G7PSE7 19-238); assay: ELISA, coated antigen
T4 construct: Bought antigen coated on ELISA plates; construct not described
T4 sequence (G7PSE7 entry or part of it): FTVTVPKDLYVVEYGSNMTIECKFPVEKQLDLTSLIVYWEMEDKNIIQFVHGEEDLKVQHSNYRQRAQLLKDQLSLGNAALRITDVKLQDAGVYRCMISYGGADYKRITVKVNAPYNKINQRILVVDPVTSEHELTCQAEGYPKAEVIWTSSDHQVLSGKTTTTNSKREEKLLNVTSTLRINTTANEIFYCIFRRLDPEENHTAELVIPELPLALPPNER
Protocol: as §1, §2

T1 sequence (Q9NZQ7 19-238 limits assumed): as the sequence (G7PSE7 entry or part of it) above, with T33A, S34A, N62S, Q68R, R82Q, L173F, A185T, I192T, L215H counted along it

Kd [1] [nM]	koff [1] [s⁻¹]	kon [1] [M⁻¹ s⁻¹]	EC50 [2] [nM]	binding result [3]	binding result [4]	EC50 [5] [nM]	Binder
4.37	0.00422	967000	0.012	no binding	no binding	0.013	anti-PD-L1 monoclonal antibody 1029 (antibody, human IgG1, V domains shown) VH: EVQLVESGGGLVQPGGSLRLSCAASGFTLDYYSKCWFRQAPGKEREWVSCIGSSDGSTYYADSVKGRFTISRDNAKNTVYLQMNSLRAEDTAVYYCAARNGGPLTIENFFDYWGQGTQVTVSS
4.38	0.00293	670000	0.014	no binding	no binding	0.018	anti-PD-L1 monoclonal antibody 1541 (antibody, human IgG1, V domains shown) VH: EVQLVESGGGLVQPGGSLRLSCAASGFTFDYYTQCWFRQAPGKEREWVSCISSSEGSTYYADSVKGRFTISRDNSKNTVYLQMNSLKTEDTAVYYCAARKGGPLTIENFFDYWGQGTQVTVSS
8.3	0.00913	1.1e+06	0.02	no binding	no binding	0.018	anti-PD-L1 monoclonal antibody 1031 (antibody, human IgG1, V domains shown) VH: EVQLVESGGGLVQPGGSLRLSCAASGFTFEYYTKCWFRQAPGKEREWVSCISTSEGSTYYADSVKGRFTISRDNAKNTVYLQMNSLRAEDTAVYYCAARKGGPLTIENFFDYWGQGTQVTVSS
